Assay results from PMC9879285.
Where “and” joins values, the source holds several entries; their conditions need not be identical. Equal entries are not always repeated.

Molecular target: V2E FP_HM (HIV gp41 ectodomain construct FP_HM with the V2E mutation) (HIV (HXB2 laboratory strain))
Assay: SEC

With “V2E FP_HM (HIV gp41 ectodomain construct FP_HM with the V2E mutation) (domain or fragment)” the stoichiometry N was 3 and 6.
